Results on 8 molecules are retold here after paper PMC13262181 (Structure (London, England : 1993), 2025).

Ends that are not written are not given here. Ahx = NCCCCCC(=O)O

A short description of data set [1]: Solubility of synthesized peptides. In kind it is physicochemical. The following applies: when synthesized and experimentally tested.
Data set [2] addresses LVEAVY tracer (synthetic construct). As to conditions: cited from earlier work.
Data set [3] addresses T1, Cdc37 (Homo sapiens, UniProt Q16543).
T1 sequence (Q16543 1-378): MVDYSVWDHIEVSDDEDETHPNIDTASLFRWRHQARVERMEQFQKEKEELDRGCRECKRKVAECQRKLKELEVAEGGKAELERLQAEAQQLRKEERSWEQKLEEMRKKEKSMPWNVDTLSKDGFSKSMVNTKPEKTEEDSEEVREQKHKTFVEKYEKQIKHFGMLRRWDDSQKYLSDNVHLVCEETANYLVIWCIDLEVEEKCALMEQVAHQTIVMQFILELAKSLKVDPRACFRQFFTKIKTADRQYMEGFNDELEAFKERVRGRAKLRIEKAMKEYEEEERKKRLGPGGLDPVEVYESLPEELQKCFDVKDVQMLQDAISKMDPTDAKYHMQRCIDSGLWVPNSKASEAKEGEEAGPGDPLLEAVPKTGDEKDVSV
Nature of the data set: 19F T2 filter NMR binding to Cdc37. As to conditions: 19F-peptides 20 μM, increasing Cdc37 (0.5, 1, 2, 4 μM).

The target in data set [4] is T2, Hsc70 SBD construct (residues 395-509) (human, UniProt P11142 395-509). Nature of the data set: fluorescence polarisation. (In general: Polarisation of emitted light reports the rotation of a fluorescent probe.)
For data set [5], the target named is T2, Hsc70 SBD construct (residues 395-509). Nature of the data set: fluorescence polarisation. The source holds these as a separate data set.
For data set [6] the target is unchanged. Put plainly: fluorescence polarisation. The source holds these as a separate data set.

T2 sequence (P11142 395-509): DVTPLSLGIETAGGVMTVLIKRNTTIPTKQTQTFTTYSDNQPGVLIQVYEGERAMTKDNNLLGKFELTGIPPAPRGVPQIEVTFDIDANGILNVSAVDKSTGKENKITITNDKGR

Turning to F-GVAEIGVGAYG [Cdk4-3], in data set [1], the solubility entry is “limited solubility”. As for FATSRTDREGPN [Cdk4-1], the solubility result in data set [1] was “limited solubility”. With Hsc70 SBD (from UniProt P11142), in data set [2], the Kd is 100 nM. As to PGQLMAISVGPTTLFV [Cdk4-2-scr], the “binding to Cdc37, 19F NMR titration” value in data set [3] is reported as “no interaction was observed”.

B1: FAM-Ahx-LPISTGGFQMALTPVV-OH (peptide)
peptide: {FAM-Ahx}-LPISTGGFQMALTPVV-OH
In data set [4], B1 displayed a Kd of 29 nM.

B2: Ac-… with the Leu residue mutated to alanine (peptide)
peptide: Ac-TGGFQMAAT
Regarding B2, in data set [5], the binding result is listed as “binds”.

B3: Ac-… with the Met residue mutated to alanine (peptide)
peptide: Ac-TGGFQAALT
For B3, in data set [5], the binding result is “binds”.

B4: unlabeled Cdk4-4 (peptide)
peptide: Ac-GGFQMALTPVV-OH
Consider B4, for which the Ki in data set [6] is > 100000 nM.

In general, Kd refers to the equilibrium constant for the complex coming apart. Usually Ki stands for the dissociation constant of the complex between target and ligand, obtained from inhibition or displacement. The low end stands for higher affinity, the high end for lower affinity.
